Results from patent US20230201364A1 (BRIGHT PEAK THERAPEUTICS, published 2023).

What was measured:
[1] = target: T1, recombinant biotinylated human neonatal Fc receptor (FcRn) (human, UniProt P55899 24-297; P61769 21-119, limits assumed, biotinylated); test: AlphaLISA competition at pH 6; test molecule titrated against human IgG acceptor beads for biotinylated human FcRn
T1 construct: also called human FcRn
Experimental: The interaction of the unmodified and of conjugated anti-PD1 antibodies with the human neonatal Fc receptor (FcRn) at pH 6 was measured using the AlphaLISA Human FcRn Binding Kit (AL3095C) from Perkin Elmer (Schwerzenbach, Switzerland).
After 90 min at 23° C. in the dark, AlphaLISA signal was measured on an EnSpire plate reader (Excitation at 680 nm, Emission at 615 nm) from Perkin Elmer (Schwerzenbach, Switzerland).

[2] = target: T2, recombinant biotinylated human Fc gamma receptor IIa (FcγRIIa/CD32a 167H) (human, UniProt P12318 36-218, limits assumed, biotinylated); test: AlphaLISA competition; test molecule titrated against human IgG Fc acceptor beads for biotinylated FcγRIIa
T2 construct: also called FcgRIIa
T2 sequence (looked up): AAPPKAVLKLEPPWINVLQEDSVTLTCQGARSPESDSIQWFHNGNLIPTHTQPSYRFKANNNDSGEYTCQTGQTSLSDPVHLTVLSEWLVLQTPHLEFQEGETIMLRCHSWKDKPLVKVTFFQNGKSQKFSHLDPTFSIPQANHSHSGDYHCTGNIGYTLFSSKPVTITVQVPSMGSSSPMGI
Experimental: (§1) The interaction of the unmodified and of conjugated antibodies with human Fc gamma receptors I (FcγRI/CD64), with human Fc gamma receptors II (FcγRIIa/CD32), and with low affinity human Fc gamma receptors III FcγR3a/CD16 V158 were measured using the AlphaLISA® Human FcγR1/CD64 (AL3081C), FcγRIIa/CD32a 167H (AL3086C), and FcγRIII/CD16 176P/F158 (AL3471HV) binding Kits respectively (Perkin Elmer, Schwerzenbach, Switzerland).
(§2) After 90 min at 23° C. in the dark, AlphaLISA® signal was measured on an EnSpire plate reader (Excitation at 680 nm, Emission at 615 nm) from Perkin Elmer (Schwerzenbach, Switzerland).

[3] = target: T3, recombinant biotinylated human Fc gamma receptor I (FcγRI/CD64) (human, UniProt P12314 16-288, limits assumed, biotinylated); test: AlphaLISA competition; test molecule titrated against human IgG Fc acceptor beads for biotinylated FcγRI
T3 construct: also called FcgRI
Experimental: as §1, §2

CD20 = target: T4, CD20 (human, UniProt P11836 1-297, limits assumed); test: ELISA by a method analogous to the PD-1 ELISA; antigen reagent not described
T4 construct: The CD20 reagent of the ELISA is not described (analogous methods); also called human CD20
T4 sequence: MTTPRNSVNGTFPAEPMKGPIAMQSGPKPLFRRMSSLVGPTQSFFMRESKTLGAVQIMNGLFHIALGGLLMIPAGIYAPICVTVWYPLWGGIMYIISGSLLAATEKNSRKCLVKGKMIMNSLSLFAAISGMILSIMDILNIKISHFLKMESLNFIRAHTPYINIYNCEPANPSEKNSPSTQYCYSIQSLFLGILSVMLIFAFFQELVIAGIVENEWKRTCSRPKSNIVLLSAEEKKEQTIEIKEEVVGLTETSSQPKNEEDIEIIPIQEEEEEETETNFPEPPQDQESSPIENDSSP

[4] = target: T5, Fc gamma receptor IIb (FcgRIIb, CD32b) (human, UniProt P31994 46-217, limits assumed); test: AlphaLISA competition or analogous assay for FcγRIIb (not described)
T5 construct: the kit is not described; also called FcRIIb
T5 sequence (looked up): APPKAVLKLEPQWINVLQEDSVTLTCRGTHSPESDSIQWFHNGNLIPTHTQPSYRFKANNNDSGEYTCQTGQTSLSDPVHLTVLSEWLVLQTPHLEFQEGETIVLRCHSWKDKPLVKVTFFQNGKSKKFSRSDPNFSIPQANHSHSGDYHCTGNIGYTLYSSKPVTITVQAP

[5] = target: T6, recombinant biotinylated human Fc gamma receptor IIIa (FcγRIIIa/CD16) (human, UniProt P08637 17-208, limits assumed, biotinylated); test: AlphaLISA competition; test molecule titrated against human IgG Fc acceptor beads for biotinylated FcγRIIIa
T6 construct: Allotype given inconsistently (V158 against 176P/F158); also called FcgRIIIa; FcγR3a
Experimental: as §1, §2

Kd [1]: 4.03 nM
Kd [2]: 740 nM
Kd [3]: 0.233 nM
Kd (CD20): 0.076 nM
Kd [4]: 880 nM
Kd [5]: 133 nM
B1: CMP-032 (biosimilar Rituximab) (antibody, human IgG1, kappa)
heavy: not shown
light: QIVLSQSPAILSASPGEKVTMTCRASSSVSYIHWFQQKPGSSPKPWIYATSNLASGVPVRFSGSGSGTSYSLTISRVEAEDAATYYCQQWTSNPPTFGGGTKLEIKRTVAAPSVFIFPPSDEQLKSGTASVVCLLNNFYPREAKVQWKVDNALQSGNSQESVTEQDSKDSTYSLSSTLTLSKADYEKHKVYACEVTHQGLSSPVTKSFNRGEC
notes: Unconjugated parent anti-CD20 antibody (DAR 0); A biosimilar/generic rituximab was tested; also called generic rituximab
